Experimental findings from publication PMC10134200 (Cell Insight, 2023) are described below.

In this experiment the target is GST-CaM (glutathione S-transferase-tagged calmodulin) (UniProt P0DP23 1-149). The experiment is described as follows: pull-down.

B1: His-P3CP (His-tagged TRPP3 C-terminal peptide I560-K660) (domain or fragment)
chain: INDTYSEVKEELAGQKDELQLSDLLKQGYNKTLLRLRLRKERVSDVQKVLQGGEQEIQFEDFTNTLRELGHAEHEITELTATFTKFDRDGNRILDEKEQEK
In the case of B1, the binding result was “binds”.
